A short description of this series: soluble on expression in E. coli; label from the status in PepcDB or PDB records.
“MRSYDFSPLYRATVGFDRIADLMDRVMTSEVAQPTYPPYNIEKTAENAYRISIAVAGFTPDELAVEVKENTLHVGARKAADEAERTYLHRGIATRAFERRFALADHVRVSGATHEHGMLHIDLVRETPEALKPRRIEIARGDLGGTRSIEAVKEPVEA”: the “soluble on expression in E. coli” value is “not soluble”.
The entry for “LVDGSLCELRYSWAKIDTYQHVNNFITLNQVKIALAQSRCHNHHLDSTTITVWYDSAFSVMRDLKGIGANHVSGRSHGLTSRRTLLQVERAYQAFKNDQGLLPATYQVCFGVIHL” is “not soluble”; for “MTEEFNESMINDIKEGDKVTGEVQQVEDKQVVVHINGGKFNGIIPISQLSTHHIENPSEVVKVGDEVEAYVTKIEFDEENDTGAYILSKRQLETEKSYEYLQEKLDNDEVIEAEVTEVVKGGLVVDVGQRGFVPASLISTDFIEDFSVFDGQTIRIKVEELDPENNRVILSRKAVEQLENDAKKASILDSLNEGDVIDGKVARLTNFGAFINIGGVDGLVHVSELSHGTCSNTRRSCVSRLEHHHHHH” it is “soluble”.
Consider “SLAPPAPPVSYGVEEDVFHPVRAKQGMVASVDATATQVGVDILKEGGNAVDAAVAVGYALAVTHPQAGNLGGGGFMLIRSKNGNTTAIDFREMAPAKATRDMFLDDQGNPDSKKSLTSHLASGTPGTVAGFSLALDKYGTMPLNKVVQPAFKLARDGFIVNDALADDLKTYGSEVLPNHENSKAIFWKEGEPLKKGDTLVQANLAKSLEMIAENGPDEFYKGTIAEQIAQEMQKNGGLITKEDLAAYKAVERTPISGDYRGYQVYSMPPPSSGGIHIVQILNILENFDMKKYGFGSADAMQIMAEAEKYAYADRSEYLGDPDFVKVPWQALTNKAYAKSIADQIDINKAKPSSEIRPGKLAPYESNQTTHYSVVDKDGNAVAVTYTLNTTFGTGIVAGESGILLNNQMDDFSAKPGVPNVYGLVGGDANAVGPNKRPLSSMSPTIVVKDGKTWLVTGSPGGSRIITTVLQMVVNSIDYGLNVAEATNAPRFHHQWLPDELRVEKGFSPDTLKLLEAKGQKVALKEAMGSTQSIMVGPDGELYGASDPRSVDDLTAGY”, for which the “soluble on expression in E. coli” value is “soluble”.
As to “MNNAMQLLQPYPFKKLRALLGSVTPNPEKRPVALSIGEPKHRSPDFVAKALADNLDQMAVYPTTLGIPALREAIAGWCNRRFGVPQGWIDPARNVLPVNGTREALFAFTQTVVNRSDDGLVVSPNPFYQIYEGAAFLAGAQPHYLPCLSDNGFNPDFDAVDADIWKRCQILFLCSPGNPTGALIPVETLKKLIALADEHDFVIAADECYSELYFDEQTPPPGLLSACVELGRQDFKRCVVFHSLSKRSNLPGLRSGFVAGDAEILKAFLLYRTYHGCAMPVQTQLASIAAWNDEEHVRANRDLYREKFDAVLDILAPVLDVQRPDGGFYLWPNVGTDDAAFCRDLFVDQHVTAVPGSYLSREVDGVNPGAGRVRLALVAPLAECIEAAERIRAFVLK”, the “soluble on expression in E. coli” value was “not soluble”.
Regarding “MNKRCEEVLRRYFAEVPFIIEKACELAESMLGEGSHGLSHTIRVLDLALQIGRVEGANLEVLALAAILHDIARPLEDKGRIKDHAQEGARIVRSFLSKLRYPHVDEVAHAIEAHRFSTNIEPRTLEAKILSDADKIDALGAIGIARVFMYAGEKGRSIEDSIKHFEEKILRLKDLMYTETGKRIAQERHKIVEEFVNILKKELIAAALEHHHHHH”, the “soluble on expression in E. coli” value was “soluble”.
The entry for “MDNGTDSSTSKFVPEYRRTNFKNKGRFSADELRRRRDTQQVELRKAKRDEALAKRRNFIPPTDGADSDEEDESSVSADQQFYSQLQQELPQMTQQLNSDDMQEQLSATVKFRQILSREHRPPIDVVIQAGVVPRLVEFMRENQPEMLQLEAAWALTNIASGTSAQTKVVVDADAVPLFIQLLYTGSVEVKEQAIWALGNVAGDSTDYRDYVLQCNAMEPILGLFNSNKPSLIRTATWTLSNLCRGKKPQPDWSVVSQALPTLAKLIYSMDTETLVDACWAISYLSDGPQEAIQAVIDVRIPKRLVELLSHESTLVQTPALRAVGNIVTGNDLQTQVVINAGVLPALRLLLSSPKENIKKEACWTISNITAGNTEQIQAVIDANLIPPLVKLLEVAEYKTKKEACWAISNASSGGLQRPDIIRYLVSQGCIKPLCDLLEIADNRIIEVTLDALENILKMGEADKEARGLNINENADFIEKAGGMEKIFNCQQNENDKIYEKAYKIIETYFGEEEDAVDETMAPQNAGNTFG” is “soluble”; for “GPMSAQDVENAVEAALDPSVGPIIKQQATDFIGSLRSSSTGWKICHEIFSEKTKYKPSTRLICLQTLSEKVREWNNESNLLELQMIRDSVWSYIKELSFLDEPAYISNAVQHLLTLLFLQLYPSNWNDFFASLQGVIAASSQSEFSNFYLKVLLSIGDEIADSLVLKTDVQIQKDNLVKDAIRANDMSDIVSFVYEMMLAYSNAKNYGTVGLCLQVYAQWVSWININLIVNEPCMNLLYSFLQIEELRCAACETMTEIVNKKMKPLEKLNLLNILNLNLFFSKSQEQSTDPNFDEHVAKLINAQGVELVAIKSDPSELSPELKENCSFQLYNLFPYLIRYLSDDYDETSTAVFPFLSDLLVSLRKESSSKELSASLKEFLKSLLEAIIKKMKYDESQEWDDDPDSEEEAEFQEMRKKLKIFQDTINSIDSSLFSSYMYSAITSSLSTAATLSPENSWQLIEFALYETYIFGEGLRGPDAFFNEVDKSPTVLSQILALVTTSQVCRHPHPLVQLLYMEILVRYASFFDYESAAIPALIEYFVGPRGIHNTNERVRPRAWYLFYRFVKSIKKQVVNYTESSLAMLGDLLNISVSPVTDMDAPVPTLNSSIRNSDFNSQLYLFETVGVLISSGNLTPEEQALYCDSLINALIGKANAALSSDLSALENIISVYCSLMAIGNFAKGFPARGSEEVAWLASFNKASDEIFLILDRMGFNEDIRGAVRFTSGRIINVVGPDMLPKVPQLISILLNSIDMNELVDVLSFISQLIHIYKDNMMEITNRMLPTLLMRIFSSLSAAPQGTDDAVKQNDLRKSYISFILQLLNKGFGSILFTEENQVYFDPLINSILHFANLVGEPATQKSSIALVSKMVSLWGGKDGIAGFENFTLSLTPLCFEMPVNPNFNTRDGQSLVVLGELAGLQKIILEKLGDIYKSYLVTVYFPTVNFPDVMASEYLQALSNLDSRSFKQFFQKFIQALKSGNV” it is “soluble”.
The entry for “MGSDKIHHHHHHMGSKKLTVGSDSHRLSKSSFSSNKSSHSATKDQPIDTDDIDEDDESGHNIILNIISQLRPGCDLTRITLPTFILEKKSMLERVTNQLQFPEFLLQAHSEKDPLKRFLYVMKWYLAGWHIAPKAVKKPLNPVLGEYFTAYWDLPNKQQAYYISEQTSHHPPECAYFYMIPESSIRVDGVVIPKSRFLGNSSAAMMDGSTVLQFLDIKDGNGKPEKYVLTQPNVYVRGILFGKMRIELGDHMIIKSPNFQADIEFKTKGYVFGTYDAIEGTVKDYDGNAYYEISGKWNDVMYLKDLKQPRSSPKVFLDTHKESPLRPKVRPLSEQGEYESRKLWKKVTDALAVRNHPVATEEKFQIEDHQRQLAKKRIEDGVEFHPKLFRRSKPGEDLDYCIYKNIPVDEDPEKQIRSILQIAPILPGQQFTDKFFIPAFEKIKSQKKMIENEKQNPAKQ” is “not soluble”.
As for “MAVVFKKTEGLQDTQTHYCPGCTHGIIHRLVGEVLEELGVLGDAVGVVPVGCSVLGYKYFNCDTQEAAHGRAPAAATGIKRVHPENTVFTYQGDGDLASIGTAEIVHAAARGEKITTIFVNNTTYGMTGGQMAPTTLVGQRATTAQSGRNAETQGYPIRVSEMLATLTGAVFVERVAVDTPAHVRQAKKAIKKAFQVQQAGLGFGIVEVLSTCPTNWGLAPNDALQWLRDNMIPYYPLGNFKNVEVEEVK”, the “soluble on expression in E. coli” value was “not soluble”.
The entry for “MGSDKIHHHHHHCNNSNTKDNDKLFIGNGKFCQAKRLNGLGAIYDDDYIFFDCENQIYESYNYSNKKNDKKLNVNCRNSACSHNNDKCEAYVELGEYFVFNSKIYKYYNKSKVVSGENRLYGSIVEEESGKTVFKNSIPTDMSSELAIDDSEAILYVRVLSDDIIKVDGDRHAYLLDKNFNIIYCHYNIGKFPWGAILNGNYYYINDINEIVKVNLTTFESKSIASNGKAFMADNDENFIYYSNEFSELYKLSPDDESSIKIADNALFFSVQNKYIYASGGDNGNKIIYDKNGKIIADYSACVNMGADSAFQINDKIYTIFNGGVAYMDLDGKNYGEMMQ” is “not soluble”; for “QVQLQQSGPEDVKPGASVKISCKASGYTFTDYYMNWVKQSPGKGLEWIGDINPNNGGTSYNQKFKGRATLTVDKSSSTAYMELRSLTSEDSSVYYCESQSGAYWGQGTTVTVSA” it is “soluble”.
Take “MNKFHDIFLELEQQIVQGDYQPGDLLPSENQLVETYNVSRETIRKALNLLINAGYIQKKQGKGSIVLNFKKFNFPISGVTSYKELQQTQHIESHTHVVSLEEIPVERNLAQLTGWTEGAPVWRLVRQREIEGEVDILDIDYLIKEIVPELPKHRAEDSIFDYLENDLGLAISYAQKEITVEPLTEMDKQLIGEVEGNHVVVVRSIMNLEDTRCFGYTESRHRLNKFKFVEFARRRKL”: the “soluble on expression in E. coli” value is reported as “not soluble”.
The result for “MSYSPPQPPQRQYSSTLNVDCVDGVYRSQQQVSPLTKQVNHLAYEIPKNKYANNPWNYAPEFLKVFGDLRVHIGGKAVFDCVLLGSPRPRVCWLFNEDKLRFSDVIIEDTADVCRLTIPYVQMHHFGTFTVLCENEVGRATAQAELLPLYE” reads “not soluble”.
In the case of “MSESLRNTITKIVVEKIRCKSLMFMPSHVCATFPFNTQNALVVDIGHSECIAVPIIEGVTMLNEFESARSICGRQLERRVREQMEKYGQIAELNGERRAITENDWQDIDACKLIETLSLSLICLDKERAENWTKWEASEEGEKPDIETLCKERLFPNNGKIFVVPPVVFETSTEIFFNENLNPTSFDLSLPKLLHKLVSKCPIDLRKKLFPNILLTGGVSTIPGLMKRLEQEIQVIDEKNNSKIAVIVKFYQFSEIKNTPLFVSWLGASLLGSLRETIERKSLTLEEWKNGKLAADWTDIIVKSR”, the “soluble on expression in E. coli” value is “not soluble”.
The result for “MNRVKYTIKCTILQGKIKERLIKNIHLNEMNLRNWSTLKWSTRV” reads “not soluble”; that for “SLTTFATEWEKQLELYPEEYRKAYRRVKRASEILLREPEPQVGLTPKEVIWTKNKTKLYRYIPKQEKTQRVPILLIYALINKPYIMDLTPGNSLVEYLVDRGFDVYMLDWGTFGLEDSHLKFDDFVFDYIAKAVKKVMRTAKSDE”, “soluble”; that for “MRPDDAIELFNSCRGHCIERQNYIENLQKRHVRKNRNVSAPRTDGLEDSADPTEQVYTNNKPVKKKPRKNRRGGHLAPSQHFQHQTQSSPYSLRKWSQNQSVYQRGLVPPPGPAGEDYSQRRFFWSARPNKWTAESYQRPFYPYYWEWNL”, “not soluble”.
The entry for “MGSDKIHHHHHHMYFELKENRPHGTPENPFSQYHISDVKRAFQIPVHWHDELEIIYVKQGKLHVTISGENYIGSPKDAFVVSPGSLHLMGSPTGDADYYTFLFPLEYISFQTDDLMEKSILSPLKRGRLMISPQINDTAADICERLIEINEQISGKNAEKTDAANIEAQFETKITLIKFIRKMWRNGLILENGTNGTNTTEKEMITYIRQNYTREISLKEFGAQFHLSEKYISRYFKEHFHITLSQYVNHLRLEHARQLLEESTASVTEVAMCSGYQNVSYFIRSFKKMYGVSPLKYRNFQTLP” is “not soluble”.
The result for “MDKILGIKFRDYGQVYYFLAGEAEVSLGDRVIVETDQGQGIGEVIAVRDDRPSDAGDEELQPILRVAEGEDLERAETNEAMGAEAAAYCRECIRARNLDMKLVDVEVFFDLSKLIFYFTAPSRIDFRELVKDLVKHYRTRIELRQIGVRHETQMIGAVGNCGMVCCCRRYLRKFAPVTIKMAKEQNLFLNPAKISGICGRLLCCLSYEQENYEEFHRSCPRLGKKYMTNRGPVKVLRANMFRNSLMAFTDTGEEIEISLDEWQQLDPRRPDQQPQQARPPRRDRPEGGSARDGNGDRAPAPSSDRAAGATGGEAARHGGGRAGERSDRGGRPDRAERADRRGMPHGDVPGSGETPPAGGEAEADAPSLHAAGVEFATEQPAPFDTSPDGGAVMGMEQVEALEHHHHHH” reads “not soluble”.

Source of the values: the DeepSol protein solubility set.
